Laboratory results published in paper PMC8444450 (The Journal of Biological Chemistry, 2021).

Biological target: SARS-CoV-2 spike receptor-binding domain (amino acids 333–529), bacteria-expressed and refolded (SARS-CoV-2, parental (WT) RBD, UniProt P0DTC2)
Assay: SPR
Conditions: both partners purified

B1: sybody Sb68 (VHH)
VHH: QVQLVESGGGSVQAGGSLRLSCAASGSISSITYLGWFRQAPGKEREGVAALITVNGHTYYADSVKGRFTVSLDNAKNTVYLQMNSLKPEDTALYYCAAAAWGYAWPLHQDDYWYWGQGTQVTVSA
  Kd: 6.8 to 62.7 nM
